Residue numbers refer to the chain shown, from its start.
T1: Rnd1 GTP-binding domain (residues 1-191) (UniProt Q92730 1-191)
T1 construct: source: E. coli Rosetta 2 (DE3), purified (Nickel-NTA, TEV cleavage; in some cases ion exchange or size exclusion chromatography); not shown: His6, N-terminal, cleaved
T1 sequence (looked up): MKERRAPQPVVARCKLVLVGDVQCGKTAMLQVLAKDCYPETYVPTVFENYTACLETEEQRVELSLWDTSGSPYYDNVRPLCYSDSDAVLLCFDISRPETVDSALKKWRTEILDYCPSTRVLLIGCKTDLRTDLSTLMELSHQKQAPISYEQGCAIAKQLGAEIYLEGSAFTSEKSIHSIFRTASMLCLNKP

T2: Rnd2 GTP-binding domain (residues 2-184) (UniProt P52198 2-184)
T2 construct: source: E. coli BL21 (DE3), purified (Nickel-NTA, TEV cleavage; in some cases ion exchange or size exclusion chromatography); not shown: His6, N-terminal, cleaved
T2 sequence (looked up): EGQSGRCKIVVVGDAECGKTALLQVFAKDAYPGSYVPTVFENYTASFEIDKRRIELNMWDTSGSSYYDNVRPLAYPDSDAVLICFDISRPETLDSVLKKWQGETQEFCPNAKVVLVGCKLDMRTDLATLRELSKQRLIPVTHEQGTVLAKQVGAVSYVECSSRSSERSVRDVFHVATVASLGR

T3: Rnd3 GTP-binding domain (residues 16-200), wild type (UniProt P61587 16-200)
T3 construct: source: E. coli BL21 (DE3), purified (Nickel-NTA, TEV cleavage; in some cases ion exchange or size exclusion chromatography); not shown: His6, N-terminal, cleaved
T3 sequence (looked up): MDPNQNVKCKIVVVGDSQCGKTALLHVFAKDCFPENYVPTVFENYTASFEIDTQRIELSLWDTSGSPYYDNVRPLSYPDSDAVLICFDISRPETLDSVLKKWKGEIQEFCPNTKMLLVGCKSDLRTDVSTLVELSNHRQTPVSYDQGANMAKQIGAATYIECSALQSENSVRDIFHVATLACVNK

T4: Rnd3-F124Y (GTP-binding domain, residues 16-200) (UniProt P61587 16-200, F124Y)
T4 construct: source: E. coli Rosetta 2 (DE3), purified in the same way as wild type Rnd3; not shown: His6, N-terminal, cleaved
T4 sequence (looked up): T3 sequence (looked up) with F109Y

T5: Rnd3-Y60A (GTP-binding domain, residues 16-200) (UniProt P61587 16-200, Y60A)
T5 construct: source: E. coli BL21 (DE3), purified in the same way as wild type Rnd3; not shown: His6, N-terminal, cleaved
T5 sequence (looked up): T3 sequence (looked up) with Y45A

T6: Rnd3-N86R (GTP-binding domain, residues 16-200) (UniProt P61587 16-200, N86R)
T6 construct: source: E. coli BL21 (DE3), purified in the same way as wild type Rnd3; not shown: His6, N-terminal, cleaved
T6 sequence (looked up): T3 sequence (looked up) with N71R

T7: Rnd1 GTP-binding domain (residues 1-191) (UniProt Q92730 1-191)
T7 construct: Cloned into pETDuet-1; tag removed with TEV protease; source: E. coli Rosetta 2 (DE3), purified (Nickel-NTA chromatography, TEV cleavage; in some cases ion exchange or size exclusion chromatography); not shown: His6, N-terminal, cleaved
T7 sequence (looked up): T1 sequence (looked up)

B1: Plexin-B1-RBD (Rho-binding domain of Plexin-B1, residues 1746-1851), histidine-tagged (domain or fragment, UniProt O43157 1746-1851, looked up)
chain: YRPLTLNALLAVGPGAGEAQGVPVKVLDCDTISQAKEKMLDQLYKGVPLTQRPDPRTLDVEWRSGVAGHLILSDEDVTSEVQGLWRRLNTLQHYKVPDGATVALVP
notes: A TEV protease site lies between the hexahistidine tag and the domain; Vector pETDuet-1; also called HisPlexin-B1; Plexin-B-RBD; source: E. coli BL21 (DE3), purified (Nickel-NTA; in some cases ion exchange or size exclusion chromatography); not shown: His6, N-terminal, kept
B2: Plexin-B2-RBD (Rho-binding domain of Plexin-B2, residues 1452-1562) (domain or fragment, UniProt O15031 1452-1562, looked up)
chain: GLLGDDVEYAPLTVSVIVQDEGVDAIPVKVLNCDTISQVKEKIIDQVYRGQPCSCWPRPDSVVLEWRPGSTAQILSDLDLTSQREGRWKRVNTLMHYNVRDGATLILSKVG
notes: Vector pETDuet-1; tag removed with TEV protease; source: E. coli BL21 (DE3), purified (Nickel-NTA, TEV cleavage; in some cases ion exchange or size exclusion chromatography); not shown: His6, N-terminal, cleaved
B3: Plexin-B1-RBD (Rho-binding domain of Plexin-B1, residues 1746-1851), histidine-tagged (domain or fragment, UniProt O43157 1746-1851, looked up)
chain: B1 chain
notes: A TEV protease cleavage site lies between the hexahistidine tag and the domain; removal of the tag was inefficient for Plexin-B1-RBD, so the tag was kept; Cloned into pETDuet-1; also called HisPlexin-B1; source: E. coli BL21 (DE3), purified (Nickel-NTA chromatography; in some cases ion exchange or size exclusion chromatography); not shown: His6, N-terminal, kept

Columns and labels:
Rnd2 (Homo sapiens) = Rnd2 (Homo sapiens) (UniProt P52198); details: cited from earlier work
Sequence of Rnd2 (Homo sapiens) (P52198 1-224): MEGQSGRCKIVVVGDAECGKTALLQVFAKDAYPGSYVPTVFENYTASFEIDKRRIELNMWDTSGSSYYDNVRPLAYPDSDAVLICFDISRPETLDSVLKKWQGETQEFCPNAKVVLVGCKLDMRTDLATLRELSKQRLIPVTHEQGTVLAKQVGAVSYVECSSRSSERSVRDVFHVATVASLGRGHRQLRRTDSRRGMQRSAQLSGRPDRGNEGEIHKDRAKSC

[1] = target: the molecule itself; test: ITC; control dilution: Plexin-B1-RBD titrated into buffer alone, same conditions as the binding titrations; dimer to monomers
[2] = target: T1, Rnd1 GTP-binding domain (residues 1-191); test: ITC; Plexin-B-RBD (400-600 uM, syringe) titrated into Rnd protein (40-60 uM, cell); 25°C; buffer 2: 50 mM sodium phosphate pH 7.0, 150 mM NaCl, 4 mM MgCl2, 3 mM DTT; independent binding sites model; details: both partners purified
[3] = target: T2, Rnd2 GTP-binding domain (residues 2-184); test: as above; details: both partners purified
[4] = target: T3, Rnd3 GTP-binding domain (residues …); test: as above; details: both partners purified
[5] = target: T4, Rnd3-F124Y (GTP-binding domain, …); test: as above; details: both partners purified
[6] = target: T5, Rnd3-Y60A (GTP-binding domain, residues …); test: as above; details: both partners purified
[7] = target: T6, Rnd3-N86R (GTP-binding domain, residues …); test: as above; details: both partners purified
[8] = target: T7, Rnd1 GTP-binding domain (residues 1-191); test: ITC; Plexin-B1-RBD in the syringe titrated into Rnd1 in the cell; low salt buffer 1: 50 mM sodium phosphate pH 7.0, 50 mM NaCl, 4 mM MgCl2, 3 mM DTT, 25°C; independent binding sites model; mean and SD of 5 fitted binding curves; details: both partners purified

Molecule | Kd [2] | dH [2] | stoichiometry N [2] | Kd [3] | dH [3] | stoichiometry N [3] | Kd [4] | dH [4] | stoichiometry N [4] | Kd [5] | dH [5] | stoichiometry N [5] | Kd [6] | dH [6] | stoichiometry N [6] | Kd [7] | dH [7] | stoichiometry N [7] | further results
Plexin-B1 RBD (from UniProt O43157) | – | – | – | – | – | – | – | – | – | – | – | – | – | – | – | – | – | – | Kd (Rnd2 (Homo sapiens)): > 20 µM
B1 | 2.37 µM | -15.6 kcal/mol | 0.85 | 7.64 µM | -7.33 kcal/mol | 1.16 | 6.62 µM | -9.73 kcal/mol | 1.07 | 4.6 µM | -8.65 kcal/mol | 1.04 | 7.26 µM | -2.76 kcal/mol | 1.02 | 8.12 µM | -5.53 kcal/mol | 0.91 | binding result [1]: binds
B2 | 11.1 µM | -6.67 kcal/mol | 1.05 | 4.93 µM | -4.29 kcal/mol | 1.15 | 3.01 µM | -9.33 kcal/mol | 1.23 | 2.97 µM | -7.73 kcal/mol | 1.14 | 3.06 µM | -5.64 kcal/mol | 1.06 | 3.86 µM | -7.37 kcal/mol | 1.13 | –
B3 | – | – | – | – | – | – | – | – | – | – | – | – | – | – | – | – | – | – | Kd [8]: 5.37 µM; stoichiometry N [8]: 0.94
